The values below come from the supplement of paper PMC10567573.

To fix the notation:
B1: DUSP5 (parent)
chain: YSEYPECCVDVKPISQEKIESERA
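Note: lentivirally expressed fusions sorted by FACS into six bins by GFP to DsRed ratio, PSI derived from sequencing read proportions per bin multiplied by bin number.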

This series covers variants of B1. The series can be described thus: protein stability index of a GFP-peptide fusion (GPS, HEK-293T) (PSI 1-6); higher = more stable. Conditions: c terminus: a fixed tail appended.
YSEYPECCVKVKPISQEKIESERA [D10K]: the protein stability index was determined as 3.71.
The value for YSEYPECCVIVKPISQEKIESERA [D10I] was 2.6.
With YSEYPECCVNVKPISQEKIESERA [D10N] the figure was 2.18; with YSEYPECCVWVKPISQEKIESERA [D10W], 1.74; with YSEYPECCVHVKPISQEKIESERA [D10H], 3.15.
The value for YSEYPECCVYVKPISQEKIESERA [D10Y] was 3.04; that for YSEYPECCVAVKPISQEKIESERA [D10A] was 3.56.
YSEYPECCVPVKPISQEKIESERA [D10P]: the protein stability index came out at 3.96.
The value for YSEYPECCVMVKPISQEKIESERA [D10M] was 2.91; that for YSEYPECCVTVKPISQEKIESERA [D10T] was 2.85.
With YSEYPECCVFVKPISQEKIESERA [D10F], the protein stability index worked out at 2.47.
The value for YSEYPECCVCVKPISQEKIESERA [D10C] was 2.69.
The value for YSEYPECCVLVKPISQEKIESERA [D10L] was 2.98; that for YSEYPECCVRVKPISQEKIESERA [D10R] was 2.84.
The value for YSEYPECCVEVKPISQEKIESERA [D10E] was 4.66; that for YSEYPECCVSVKPISQEKIESERA [D10S] was 3.88.
As for YSEYPECCVDVDPISQEKIESERA [K12D], the protein stability index came to 4.46.
On to YSEYPECCVDVHPISQEKIESERA [K12H], for which the protein stability index is 4.95.
The value for YSEYPECCVDVRPISQEKIESERA [K12R] was 4.25; that for YSEYPECCVDVWPISQEKIESERA [K12W] was 3.26.
With YSEYPECCVDVSPISQEKIESERA [K12S] the figure was 3.02.
The value for YSEYPECCVDVNPISQEKIESERA [K12N] was 4.07; that for YSEYPECCVDVQPISQEKIESERA [K12Q] was 4.77.
Regarding YSEYPECCVDVVPISQEKIESERA [K12V], the protein stability index worked out at 4.14.
With YSEYPECCVDVTPISQEKIESERA [K12T] the figure was 4.07; with YSEYPECCVDVMPISQEKIESERA [K12M], 4.18; with YSEYPECCVDVCPISQEKIESERA [K12C], 3.96.
The value for YSEYPECCVDVAPISQEKIESERA [K12A] was 4.47; that for YSEYPECCVDVIPISQEKIESERA [K12I] was 3.72; that for YSEYPECCVDVPPISQEKIESERA [K12P] was 4.32.
As for YSEYPECCVDVFPISQEKIESERA [K12F], the protein stability index was 3.83.
Take YSEYPECCVDVKPIEQEKIESERA [S15E]: the protein stability index worked out at 4.18.
The value for YSEYPECCVDVKPIDQEKIESERA [S15D] was 4.81; that for YSEYPECCVDVKPICQEKIESERA [S15C] was 4.14; that for YSEYPECCVDVKPIAQEKIESERA [S15A] was 4.16.
In the case of YSEYPECCVDVKPCSQEKIESERA [I14C], the protein stability index was 3.86.
The value for YSEYPECCVDVKPKSQEKIESERA [I14K] was 4.43.
With YSEYPECCVDVKPRSQEKIESERA [I14R] the figure was 3.45.
Regarding YSEYPECCVDVKPWSQEKIESERA [I14W], the protein stability index was found to be 3.9.
YSEYPECCVDVKPMSQEKIESERA [I14M]: the protein stability index amounted to 4.65.
Regarding YSEYPECCVDVKPHSQEKIESERA [I14H], the protein stability index turned out to be 4.29.
With YSEYPECCVDVKPVSQEKIESERA [I14V] the figure was 4.11.
With YSEYPECCVDVKPDSQEKIESERA [I14D] the figure was 4.81.
For the variant YSEYPECCVDVKPASQEKIESERA [I14A], the protein stability index is 4.58.
With YSEYPECCVDVKPTSQEKIESERA [I14T], the protein stability index was determined as 3.48.
The value for YSEYPECCVDVKPQSQEKIESERA [I14Q] was 4.48.
As for YSEYPECCVDVKPPSQEKIESERA [I14P], the protein stability index was determined as 4.45.
The value for YSEYPECCVDVKPFSQEKIESERA [I14F] was 4.18; that for YSEYPECCVDVKPYSQEKIESERA [I14Y] was 3.84; that for YSEYPECCVDVKPESQEKIESERA [I14E] was 4.5.
The value for YSEYPECCVDVKPNSQEKIESERA [I14N] was 3.31; that for YSEYPECCVDVKPSSQEKIESERA [I14S] was 4.4; that for YSEYPECCVDVKPGSQEKIESERA [I14G] was 3.83.
With YSESPECCVDVKPISQEKIESERA [Y4S] the figure was 5.19; with YSEVPECCVDVKPISQEKIESERA [Y4V], 5.67; with YSEMPECCVDVKPISQEKIESERA [Y4M], 4.6.
With YSELPECCVDVKPISQEKIESERA [Y4L], the protein stability index was determined as 5.71.
The value for YSERPECCVDVKPISQEKIESERA [Y4R] was 5.52; that for YSEQPECCVDVKPISQEKIESERA [Y4Q] was 5.34; that for YSEPPECCVDVKPISQEKIESERA [Y4P] was 5.53.
With YSETPECCVDVKPISQEKIESERA [Y4T], the protein stability index was found to be 5.77.
The value for YSEWPECCVDVKPISQEKIESERA [Y4W] was 1.72; that for YSEKPECCVDVKPISQEKIESERA [Y4K] was 5.62.
The value for YSEYPECCDDVKPISQEKIESERA [V9D] was 4.12; that for YSEYPECCYDVKPISQEKIESERA [V9Y] was 4.04; that for YSEYPECCSDVKPISQEKIESERA [V9S] was 4.93.
With YSEYPECCCDVKPISQEKIESERA [V9C] the figure was 4.12.
As for YSEYPECCQDVKPISQEKIESERA [V9Q], the protein stability index was determined as 4.47.
On to YSEYPECCFDVKPISQEKIESERA [V9F], for which the protein stability index was determined as 3.76.
Consider YSEYPECCKDVKPISQEKIESERA [V9K], for which the protein stability index turned out to be 4.53.
YSEYPECCEDVKPISQEKIESERA [V9E]: the protein stability index was 5.56.
With YSEYPECCNDVKPISQEKIESERA [V9N], the protein stability index was 5.56.
With YSEYPECCHDVKPISQEKIESERA [V9H] the figure was 4.39; with YSEYPECCMDVKPISQEKIESERA [V9M], 3.77.
The value for YSEYPECCRDVKPISQEKIESERA [V9R] was 2.94.
Regarding YSEYPECCGDVKPISQEKIESERA [V9G], the protein stability index was 4.4.
Take YSEYPECCWDVKPISQEKIESERA [V9W]: the protein stability index came to 3.39.
With YSEYPECCADVKPISQEKIESERA [V9A] the figure was 4.26; with YSEYPECCPDVKPISQEKIESERA [V9P], 4.24; with YSEYPECCIDVKPISQEKIESERA [V9I], 4.35.
With YSEYPECCLDVKPISQEKIESERA [V9L] the figure was 4.7; with YSEYPECCTDVKPISQEKIESERA [V9T], 4.4; with YSEYPECKVDVKPISQEKIESERA [C8K], 4.87.
As to YSEYPECMVDVKPISQEKIESERA [C8M], the protein stability index amounted to 4.59.
With YSEYPECSVDVKPISQEKIESERA [C8S] the figure was 4.66; with YSEYPECGVDVKPISQEKIESERA [C8G], 5.25; with YSEYPECDVDVKPISQEKIESERA [C8D], 4.84.
Consider YSEYPECPVDVKPISQEKIESERA [C8P], for which the protein stability index was found to be 5.6.
The value for YSEYPECNVDVKPISQEKIESERA [C8N] was 5.64; that for YSEYPECTVDVKPISQEKIESERA [C8T] was 5.41; that for YSEYPECIVDVKPISQEKIESERA [C8I] was 3.77.
The value for YSEYPECQVDVKPISQEKIESERA [C8Q] was 4.58; that for YSEYPECVVDVKPISQEKIESERA [C8V] was 4.35; that for YSEYPECEVDVKPISQEKIESERA [C8E] was 4.85.
